Measurements published in article doi:10.1101/2020.06.24.169185 (bioRxiv, 2020).

B1: mCherry-Nanog (natural protein, UniProt Q80Z64 1-305, looked up)
chain: MSVGLPGPHSLPSSEEASNSGNASSMPAVFHPENYSCLQGSATEMLCTEAASPRPSSEDLPLQGSPDSSTSPKQKLSSPEADKGPEEEENKVLARKQKMRTVFSQAQLCALKDRFQKQKYLSLQQMQELSSILNLSYKQVKTWFQNQRMKCKRWQKNQWLKTSNGLIQKGSAPVEYPSIHCSYPQGYLVNASGSLSMWGSQTWTNPTWSSQTWTNPTWNNQTWTNPTWSSQAWTAQSWNGQPWNAAPLHNFGEDFLQPYVQLQQNFSASDLEVNLEATRESHAHFSTPQALELFLNYSVTPPGEI

What was measured:
[1] = target: B1; test: fluorescence cross-correlation spectroscopy
[2] = target: the molecule itself; test: fluorescence correlation spectroscopy
[3] = target: the molecule itself; test: fluorescence correlation spectroscopy; remark: listed apart in the source
[4] = target: the molecule itself; test: fluorescence correlation spectroscopy; remark: listed apart in the source

| Binder | complex % [1] [%] | stoichiometry N [2] | GFP-Nanog/GFP brightness ratio [3] | mCherry-Nanog/mCherry brightness ratio [4] |
| --- | --- | --- | --- | --- |
| GFP-Sox2 (natural protein) not shown | 26.1 |  |  |  |
| GFP-Nanog (natural protein, UniProt Q80Z64 1-305, looked up) MSVGLPGPHSLPSSEEASNSGNASSMPAVFHPENYSCLQGSATEMLCTEAASPRPSSEDLPLQGSPDSSTSPKQKLSSPEADKGPEEEENKVLARKQKMRTVFSQAQLCALKDRFQKQKYLSLQQMQELSSILNLSYKQVKTWFQNQRMKCKRWQKNQWLKTSNGLIQKGSAPVEYPSIHCSYPQGYLVNASGSLSMWGSQTWTNPTWSSQTWTNPTWNNQTWTNPTWSSQAWTAQSWNGQPWNAAPLHNFGEDFLQPYVQLQQNFSASDLEVNLEATRESHAHFSTPQALELFLNYSVTPPGEI | 19.8 | 2 | ~1.5 |  |
| B1 |  |  |  | ~2 |
